Molecular target: the molecule itself
Experiment: SEC

B1: PV-2C-[change] (poliovirus 2C^ATPase residues 116–329) (domain or fragment)
chain: SKHRIEPVCLLVHGSPGTGKSVATNLIARAIAERENTSTYSLPPDPSHFDGYKQQGVVIMDDLNQNPDGADMKLFCQMVSTVEFIPPMASLEEKGILFTSNYVLASTNSSRISPPTVAHSDALARRFAFDMDIQVMNEYSRDGKLNMAMATEMCKNCHQPANFKRCCPLVCGKAIQLMDKSSRVRYSIDQITTMIINERNRRSNIGNCMEALFQ
- stoichiometry N: 4
